The values that follow come from PMC6494814, “Kremen1-induced cell death is regulated by homo- and heterodimerization” (Cell Death Discovery, 2019).

The labels stand for the following.
B1: Kremen1 (Krm1), full length, Flag-tagged or HA-tagged (receptor, UniProt Q99N43 20-473, looked up)
chain: ARPAPGPRSGPECFTANGADYRGTQSWTALQGGKPCLFWNETFQHPYNTLKYPNGEGGLGEHNYCRNPDGDVSPWCYVAEHEDGVYWKYCEIPACQMPGNLGCYKDHGNPPPLTGTSKTSNKLTIQTCISFCRSQRFKFAGMESGYACFCGNNPDYWKHGEAASTECNSVCFGDHTQPCGGDGRIILFDTLVGACGGNYSAMAAVVYSPDFPDTYATGRVCYWTIRVPGASRIHFNFTLFDIRDSADMVELLDGYTHRVLVRLSGRSRPPLSFNVSLDFVILYFFSDRINQAQGFAVLYQATKEEPPQERPAVNQTLAEVITEQANLSVSAAHSSKVLYVITPSPSHPPQTAPGSHSWAPSVGANSHRVEGWTVYGLATLLILTVTAVVAKILLHVTFKSHRVPASGDLRDCRQPGASGDIWTIFYEPSTTISIFKKKLKGQSQQDDRNPLVSD
notes: Kremen1 (Krm1), transmembrane receptor, full length; Two differently tagged copies of the same full-length protein (Flag-Krm1, HA-Krm1), each with ONE tag, written as one molecule for the self-association; In rows with truncated Krm1 or with Krm2 the Flag-tagged copy is the bait; Vector pCAG-IRES-EGFP or pCS2; also called Flag-Krm1; HA-Krm1; source: HEK293T, transfected, in lysate; not shown: …
B2: HA-Krm1secECD, secreted ectodomain of Krm1 (lacks the transmembrane and intracellular domains) (domain or fragment, UniProt Q99N43 21-392, looked up)
chain: RPAPGPRSGPECFTANGADYRGTQSWTALQGGKPCLFWNETFQHPYNTLKYPNGEGGLGEHNYCRNPDGDVSPWCYVAEHEDGVYWKYCEIPACQMPGNLGCYKDHGNPPPLTGTSKTSNKLTIQTCISFCRSQRFKFAGMESGYACFCGNNPDYWKHGEAASTECNSVCFGDHTQPCGGDGRIILFDTLVGACGGNYSAMAAVVYSPDFPDTYATGRVCYWTIRVPGASRIHFNFTLFDIRDSADMVELLDGYTHRVLVRLSGRSRPPLSFNVSLDFVILYFFSDRINQAQGFAVLYQATKEEPPQERPAVNQTLAEVITEQANLSVSAAHSSKVLYVITPSPSHPPQTAPGSHSWAPSVGANSHRVEGWT

Series [1] deals with the molecule itself. The experiment in a line: cross-linking; HEK293T cells transfected with HA-Krm1 and Flag-Krm1, 0.2 mM BS3 (non cell-permeant) on ice for 30 min prior to lysis; straight western blots and anti-Flag immunoprecipitation with anti-HA blot.
Series [2] has as its target B1. The experiment in a line: cell-based or functional assay.

Take B1: the “stoichiometry N” value in series [1] is 2.
Turning to B2, the “proportion of cleaved Caspase-3+ cells among HA+ HEK293T cells transfected with HA-Krm1 and either GFP or Krm1secECD; the pair interfered with is Krm1 with Krm1 (dimerization)” value in series [2] amounted to 2 fold decrease.
